From the supplement of paper PMC9170038 come the findings set out here.

This data set deals with MS2 coat protein. In words: apparent KD of MS2 coat protein; higher = weaker reporter binding. Conditions: Eterna round: R107. In a few lines: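 Designed RNA switches were transcribed on-chip from Illumina sequencing clusters. They were then titrated with SNAP-549-labelled MS2 coat protein (twofold steps, 0.7 or 1.5 nM to 3 µM; 0.8–1.5 h to 10–20 min per step) in 100 mM Tris-HCl pH 7.5, 80 mM KCl, 4 mM MgCl2, without or with constant ligand. Apparent KD is the per-design median of normalised cluster binding-curve fits.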

Where [1] appears, read: input ligand: theophylline 20 uM.
Setting [2] is: input ligand: theophylline 2 mM.
Setting [3] is: input ligand: tryptophan 2.4 mM.

With “AGAGCAUUGACGGCCGCCACUCAUGUCACAUGAGGAUCACCCAUGUGAUGGGUAAUUGCCCGGUUGAGGACCGGGUCAAUGCUCA [Omei Tryp SS B v4]”, the “apparent KD of MS2 coat protein” value (input ligand: arginine 13.2 mM) was determined as 0.00588 µM; the “apparent KD of MS2 coat protein” value (input ligand: none) came out at 0.00832 µM; the “apparent KD of MS2 coat protein” value under setting [1] is 0.0113 µM; the “apparent KD of MS2 coat protein” value under setting [2] is 0.0101 µM; the “apparent KD of MS2 coat protein” value under setting [3] turned out to be 0.00974 µM.
As to “CCUAUGCAGUCGGCCGCCACUGAUAACGUUAUCGUUACCUCAGAAACAUGAGGAUCACCCAUGUACAGGACCGGGACUGUAUAGG [Ex Tryptophan B 19]”, the “apparent KD of MS2 coat protein” value was found to be 0.0144 µM (input ligand: arginine 13.2 mM), 0.0146 µM under setting [1] and 0.0132 µM under setting [2].
In the same order, the values of “GUCCAAAGGUCGGCCGCCACUGUAGAGUGUGUUCUUUCACAUGAGGAUCACCCAUGUUGUUAUUAUAGGACCGGGAUUGUAGGAC [#21 Exclusion Tryptophan B]” are 0.0172 µM, 0.0311 µM and 0.0234 µM.
Consider “GAGGGUGAGCCUCUGGUCCGUUUGACGGAUACCAGCGAGAGGUCUCGCCCUUGGCAGCCGACGACAUGAGGAUCACCCAUGUUAA [#09 Exclusion-TheophyllineA]”, for which the “apparent KD of MS2 coat protein” value is, setting by setting: (input ligand: arginine 13.2 mM) 0.0173 µM; (input ligand: none) 0.0171 µM; under setting [1], 0.0214 µM; under setting [2], 0.0192 µM; under setting [3], 0.0157 µM.
For “CUUCAGGGUGCGGCCGCCACUUAUUAGGUGCUUGCGACGCCAGCACAUGAGGAUCACCCAUGUUCAAGGACCGGGCACCACCUUU [theeternabot_sameState_MS2_Trp_B_21]”, the “apparent KD of MS2 coat protein” value is, setting by setting: (input ligand: arginine 13.2 mM) 0.00814 µM; under setting [1], 0.02 µM; under setting [2], 0.0151 µM.
Take “UCAUUUGAGUGAGAUGUAAGGUAUCAUGAUACCAGUAGAUAAUUAUACCCUUGGCAGCAUGACAUGAGGAUCACCCAUGUACAUG [Ad]”: the “apparent KD of MS2 coat protein” value is, setting by setting: (input ligand: arginine 13.2 mM) 0.00928 µM; under setting [1], 0.0111 µM; under setting [3], 0.0123 µM.
Turning to “GGACUAACCUGAAGGAGCGGCACGCAGAAACUGCAAAUUCCUCCACACGAGGAUCACCCGUGUCAGGUAGGUCGCAGGUUAGUCG [ArgBX 28]”, the “apparent KD of MS2 coat protein” value (input ligand: arginine 13.2 mM) worked out at 0.018 µM; the “apparent KD of MS2 coat protein” value (input ligand: none) amounted to 0.0171 µM; the “apparent KD of MS2 coat protein” value under setting [1] came out at 0.0233 µM; the “apparent KD of MS2 coat protein” value under setting [2] is 0.0229 µM; the “apparent KD of MS2 coat protein” value under setting [3] stood at 0.0203 µM.
On to “ACAUGAGGAUCACCCAUGUAAGAUUCAGAAGGAGCGGGAAAUAACCCAGGUAGGUCGCUGAAGUUUGGUUUAUUGUGUUCGUGAA [#07 Exclusion - Arginine A]”, for which the “apparent KD of MS2 coat protein” value by setting is: (input ligand: arginine 13.2 mM) 0.0102 µM; (input ligand: none) 0.0104 µM; under setting [1], 0.0133 µM; under setting [2], 0.0115 µM; under setting [3], 0.0115 µM.
“AGACAUGAGGAUCACCCAUGUAGCAUGGAUACCAGAUCCAGAUUUAUCCCUUGGCAGCUGUGGUACAGUGAUGGAUUGCUCCUAG [Exclusion - Theophylline A (Freestyle 8)]”: the “apparent KD of MS2 coat protein” value was 0.0463 µM (input ligand: arginine 13.2 mM), 0.0936 µM under setting [1] and 0.0619 µM under setting [3].
Regarding “UCGUAGGUAGGAAGGAGCGCAUACUUCACAUGAGGAUCACCCAUGUCGAGACGUGAGUCAGUGCAGGUAGGUCGCCUAGCUAUGA [Same State - Arginine B (Freestyle 25)]”, the “apparent KD of MS2 coat protein” value (input ligand: arginine 13.2 mM) came to 0.0182 µM; the “apparent KD of MS2 coat protein” value (input ligand: none) was 0.026 µM; the “apparent KD of MS2 coat protein” value under setting [1] came to 0.0357 µM; the “apparent KD of MS2 coat protein” value under setting [2] came to 0.0283 µM; the “apparent KD of MS2 coat protein” value under setting [3] worked out at 0.0187 µM.
Regarding “UCAUGACAUGGGAAUAAAUAAGAAGGCGAAGGAGCGUGAAGAUUCACAGGUAGGUCGCGCAAAAUACAUGAGGAUCACCCAUGUU [JR_Nu_ExcArginiA_Sub032]”, the “apparent KD of MS2 coat protein” value was found to be 0.033 µM (input ligand: arginine 13.2 mM); 0.0304 µM (input ligand: none); 0.0532 µM under setting [1]; 0.0439 µM under setting [2]; 0.0373 µM under setting [3].
In the case of “UCGUGUAUAUCGGAUACCAGUGAGAACGAUACAUGAGGAUCACCCAUGUGAGUUGAUGUACACCCUUGGCAGCUGUAUAUAUCUA [gghullin]”, the “apparent KD of MS2 coat protein” value is, setting by setting: (input ligand: arginine 13.2 mM) 0.0189 µM; under setting [1], 0.027 µM; under setting [3], 0.02 µM.
With “AAAACAUGAGGAUCACCACAUGACAUGAGGCGAGGACCGGUACGGCCGCCACUCGACAUACAUGAGGAUCACCCAUGUUUGUUGU [Exclusion Tryptophan A 4]”, the “apparent KD of MS2 coat protein” value was 0.0407 µM (input ligand: arginine 13.2 mM), 0.274 µM under setting [1] and 0.46 µM under setting [2].
Regarding “AGAUUCGACACGGCCGCCACUUUCAGUGGCUGGUGUCAUGGUGCACAUGAGGAUCACCCAUGUGGAAGGACCGGGUGUUGAGUCU [XTryp B #26]”, the “apparent KD of MS2 coat protein” value runs as follows: (input ligand: arginine 13.2 mM) 0.0123 µM; under setting [1], 0.0218 µM; under setting [2], 0.0172 µM.
As to “AUAUGAUCAUAGGAUACCAGAAAUGGUAUUCCUUUAUUUCUUACAUGAGGAUCACCCAUGUUCCCUUGGCAGCUUAUGAUCAUAU [ETHB #4]”, the “apparent KD of MS2 coat protein” value was 0.0793 µM (input ligand: arginine 13.2 mM), 0.169 µM under setting [1] and 0.107 µM under setting [3].
As to “UCGGGCAGAGCGGCCGCCACUGUUUGGCAUGCGGAUGACGGAACAUGAGGAUCACCCAUGUUGAUUAGGACCGGGCUUGCGGAGA [eefullin]”, the “apparent KD of MS2 coat protein” value came to 0.0116 µM (input ligand: arginine 13.2 mM); 0.0189 µM (input ligand: none); 0.0423 µM under setting [1]; 0.0251 µM under setting [2]; 0.037 µM under setting [3].
Take “AGAGUCAGACAAAAGUCUGGCUCAGCCGAAGGAGCGUCCGAAAGGACAGGUAGGUCGCGGUUACAUGAGGAUCACCCAUGUUCCU [ArgAS 7 #OpenEnded]”: the “apparent KD of MS2 coat protein” value by setting is: (input ligand: arginine 13.2 mM) 0.0668 µM; (input ligand: none) 0.136 µM; under setting [1], 0.177 µM; under setting [2], 0.184 µM; under setting [3], 0.145 µM.
Turning to “GGUGGGACUUGUGAUACCAGCCCAAUUCGAAUCGAAUUGCACAUGAGGAUCACCCAUGUCGGCCCUUGGCAGCAUGAGUAUUUAU [Ricerixe]”, the “apparent KD of MS2 coat protein” value was 0.152 µM (input ligand: arginine 13.2 mM), 0.149 µM under setting [1] and 0.313 µM under setting [3].
As for “GGCACAUAGUCGGCCGCCACUAGAUUUUAGUGGAAUAACAUGAGGAUCACCCAUGUAUUUGGGACUAGGACCGGGACUAUGUGCC [Hyena]”, the “apparent KD of MS2 coat protein” value is, setting by setting: (input ligand: arginine 13.2 mM) 0.0345 µM; under setting [1], 0.0432 µM; under setting [2], 0.038 µM.
